Tested on: corneal endothelium
Set-up: species or system rabbits
Conditions: rabbit, in vivo
Description: In order to investigate the effect of hyaluronidase on the postoperative endothelium, the eyes of the rabbits from Experiment 1 were studied by performing vital staining of the corneal endothelium of the rabbits.

hyaluronidase was tested, and the “endothelial damage (vital staining of corneal endothelium)” value was “no endothelial damage”.
